Test results as given in patent US7268108 (INSTITUT EUROPEAN DE BIOLOGIE CELLULAIRE, dated 2007).
[ ]: non-standard residue; d: D form. The star is where a group is joined. dPhe(4-NO2) = N[C@H](Cc1ccc([N+](=O)[O-])cc1)C(=O)O; 2Nal = N[C@@H](Cc1ccc2ccccc2c1)C(=O)O; Benzenesulfonyl = O=S(=O)(c1ccccc1)*; d2Thi = N[C@H](Cc1cccs1)C(=O)O; PyrProp = pyridinepropionyl; Nle = CCCC[C@H](N)C(=O)O

B1: Compound No. 7 in the Table, BzlSO2-Nle-Ala-His-DpNO2Phe-Lys-Trp-NH2 (peptide)
peptide: Benzenesulfonyl-[Nle]AH[dPhe(4-NO2)]KW-NH2
SMILES: CCCC[C@H](NS(=O)(=O)c1ccccc1)C(=O)N[C@@H](C)C(=O)N[C@@H](Cc1c[nH]cn1)C(=O)N[C@H](Cc1ccc([N+](=O)[O-])cc1)C(=O)N[C@@H](CCCCN)C(=O)N[C@@H](Cc1c[nH]c2ccccc12)C(N)=O
B2: Compound No. 8 in the Table, BzlSO2-Nle-Ala-His-DThi-Lys-Trp-NH2 (peptide)
peptide: Benzenesulfonyl-[Nle]AH[d2Thi]KW-NH2
SMILES: CCCC[C@H](NS(=O)(=O)c1ccccc1)C(=O)N[C@@H](C)C(=O)N[C@@H](Cc1c[nH]cn1)C(=O)N[C@H](Cc1cccs1)C(=O)N[C@@H](CCCCN)C(=O)N[C@@H](Cc1c[nH]c2ccccc12)C(N)=O
B3: Compound No. 12 in the Table, Ac-Nle-Ala-His-L2,Nap-Lys-Trp-NH2 (peptide)
peptide: Ac-[Nle]AH[2Nal]KW-NH2
SMILES: CCCC[C@H](NC(C)=O)C(=O)N[C@@H](C)C(=O)N[C@@H](Cc1c[nH]cn1)C(=O)N[C@@H](Cc1ccc2ccccc2c1)C(=O)N[C@@H](CCCCN)C(=O)N[C@@H](Cc1c[nH]c2ccccc12)C(N)=O
B4: Compound No. 9 in the Table, Ac-Nle-Ala-His-DThi-Lys-Trp-NH2 (peptide)
peptide: Ac-[Nle]AH[d2Thi]KW-NH2
SMILES: CCCC[C@H](NC(C)=O)C(=O)N[C@@H](C)C(=O)N[C@@H](Cc1c[nH]cn1)C(=O)N[C@H](Cc1cccs1)C(=O)N[C@@H](CCCCN)C(=O)N[C@@H](Cc1c[nH]c2ccccc12)C(N)=O

Molecular target: melanocortin-1 receptor (MC-1r) on murine melanocytes (line S91 Cloudman) (murine, UniProt Q01727 1-315)
Assay: cell-based or functional assay

melanocortin-1 receptor (MC-1r) on murine melanocytes (line S91 Cloudman), sequence (Q01727 whole entry): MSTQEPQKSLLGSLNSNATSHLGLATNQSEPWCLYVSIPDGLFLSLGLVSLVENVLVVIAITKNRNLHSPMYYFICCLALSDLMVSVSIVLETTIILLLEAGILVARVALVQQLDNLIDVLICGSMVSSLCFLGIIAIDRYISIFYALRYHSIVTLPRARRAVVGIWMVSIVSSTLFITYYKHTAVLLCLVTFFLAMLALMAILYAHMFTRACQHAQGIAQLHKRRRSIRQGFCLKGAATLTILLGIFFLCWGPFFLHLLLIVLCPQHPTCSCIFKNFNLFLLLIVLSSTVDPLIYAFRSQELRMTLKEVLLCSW

Binder	cAMP production (as % of α-MSH)
PyrProp-[Nle]AH[dPhe(4-NO2)]KW-NH2 [Compound No. 10 in the Table, PyrProp-Nle-Ala-His-DpNO2Phe-Lys-Trp-NH2]	115 % of α-MSH
B1	100 % of α-MSH
B2	65 % of α-MSH
B3	50 % of α-MSH
B4	75 % of α-MSH
Ac-SYSMEHFRWGKPV-NH2	100 % of α-MSH
